± gives the standard error. Fewer inactive variants are shown than the library holds.
B1: glmS ribozyme (parent)
chain: AUAAAAGCGCCAGAACUACAGAAAUGUAGUUGACGAGGAGGAGGUUUAUCGAAUUUUCGGCGGAUGCCUCCAAA

How the values were obtained:
Settings in all cases: with glucosamine-6-phosphate
glucosamine-6-phosphate [1] = variants of: B1; experiment: self-cleavage kobs at 640 uM GlcN6P; higher = faster cleavage; RNA array
In short: (§1)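 Tiles bearing barcoded ribozyme variants, transcribed in situ by E. coli RNA polymerase on sequenced MiSeq chips, were imaged over ~14 h at 37 °C using a hybridised Cy3 probe. Glucosamine-6-phosphate was supplied at 40 μM to 10 mM in HEPES/KCl/Mg(OAc)2 buffer. kobs came from one- or two-exponential decay fits to normalised per-tile medians, and weighted Michaelis–Menten fits then provided kcat and KM.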

glucosamine-6-phosphate [2] = variants of: B1; experiment: self-cleavage kobs at 2500 uM GlcN6P; higher = faster cleavage; RNA array
In short: as §1

glucosamine-6-phosphate [3] = variants of: B1; experiment: self-cleavage kobs at 10000 uM GlcN6P; higher = faster cleavage; RNA array
In short: as §1

Variant	self-cleavage kobs at 640 uM GlcN6P (glucosamine-6-phosphate [1])	self-cleavage kobs at 2500 uM GlcN6P (glucosamine-6-phosphate [2])	self-cleavage kobs at 10000 uM GlcN6P (glucosamine-6-phosphate [3])
G9C C50U C58U	< 1e-05 s⁻¹	< 1e-05 s⁻¹	–
C8U G60A U65C	< 1e-05 s⁻¹	–	–
G9U U49A C71A	< 1e-05 s⁻¹	–	–
C11A C16U A42U	< 1e-05 s⁻¹	–	–
C11A G63A C67A U69C	< 1e-05 s⁻¹	–	–
C10A G13A C50A C58U C71G	0.000823 ± 0.00036 s⁻¹	7.64e-05 ± 3.6e-05 s⁻¹	–
C11G A39C C67G	< 1e-05 s⁻¹	< 1e-05 s⁻¹	–
C8G A12U C70U	< 1e-05 s⁻¹	< 1e-05 s⁻¹	–
C10A A48C G59C	< 1e-05 s⁻¹	–	–
C11A A36U C70G	0.000284 ± 7e-05 s⁻¹	0.000767 ± 0.00032 s⁻¹	–
C11A A36U U47C	< 1e-05 s⁻¹	< 1e-05 s⁻¹	–
C8U U55G G60U	< 1e-05 s⁻¹	–	–
C11G C16A G43U	< 1e-05 s⁻¹	–	–
C10A G38A G51U C70G	5.43e-05 ± 1.7e-05 s⁻¹	–	–
C10G U47A A53U G60U	< 1e-05 s⁻¹	–	–
C8G G29A G51C G59U	< 1e-05 s⁻¹	–	–
C8U U31G G43A	< 1e-05 s⁻¹	–	–
C8U A33G G38A G59A C70G	5.19e-05 ± 1.9e-05 s⁻¹	–	–
C10U A36G C58U	< 1e-05 s⁻¹	–	–
C10U A33U U56C C68A	< 1e-05 s⁻¹	–	–
C11A G51U A53G A64C U69A	8.76e-05 ± 3.9e-05 s⁻¹	–	5.47e-05 ± 1.5e-05 s⁻¹
C8G C11A A39C	< 1e-05 s⁻¹	–	–
C8G G40C	< 1e-05 s⁻¹	< 1e-05 s⁻¹	< 1e-05 s⁻¹

Variant	self-cleavage kobs at 640 uM GlcN6P (glucosamine-6-phosphate [1])	self-cleavage kobs at 2500 uM GlcN6P (glucosamine-6-phosphate [2])	self-cleavage kobs at 10000 uM GlcN6P (glucosamine-6-phosphate [3])
C8G G66C	< 1e-05 s⁻¹	< 1e-05 s⁻¹	–
G9A A36U U56G	< 1e-05 s⁻¹	–	–
C10U A33U A36U G43U A53G C71U	< 1e-05 s⁻¹	< 1e-05 s⁻¹	–
C10G C58U G63U	< 1e-05 s⁻¹	–	–
C10A G32C C34U	< 1e-05 s⁻¹	–	–
C8G A33C U45C U56C G59C	< 1e-05 s⁻¹	< 1e-05 s⁻¹	–
G9U U30G C68U	< 1e-05 s⁻¹	–	–
G9A U45A C50G C68U	< 1e-05 s⁻¹	–	< 1e-05 s⁻¹
G9C A53G U65C	< 1e-05 s⁻¹	< 1e-05 s⁻¹	–
C10G A15C C50A	< 1e-05 s⁻¹	–	–
G7U G35C A39U U65C	< 1e-05 s⁻¹	–	–
G9A A14U	< 1e-05 s⁻¹	< 1e-05 s⁻¹	–
C8U U31C U69A	0.00179 ± 0.00081 s⁻¹	–	–
G9U G44C G63U	< 1e-05 s⁻¹	< 1e-05 s⁻¹	–
C8A G40A C68U	< 1e-05 s⁻¹	–	< 1e-05 s⁻¹
C8U A42U U49G A52G U57G	< 1e-05 s⁻¹	< 1e-05 s⁻¹	–
C10U G37C A39G G41C A48U G62U U65A	< 1e-05 s⁻¹	< 1e-05 s⁻¹	–
C8G U55G	< 1e-05 s⁻¹	< 1e-05 s⁻¹	–
C11G A39U U45C U49A C50U G62C U65G	< 1e-05 s⁻¹	–	–
G9U A12C A33G	< 1e-05 s⁻¹	< 1e-05 s⁻¹	–
C11G A12C C34G A53G U54C	< 1e-05 s⁻¹	< 1e-05 s⁻¹	–
C8U G44A U45C	< 1e-05 s⁻¹	< 1e-05 s⁻¹	–
G7U G13A A15C A36U G43A C67U	< 1e-05 s⁻¹	< 1e-05 s⁻¹	–

Variant	self-cleavage kobs at 640 uM GlcN6P (glucosamine-6-phosphate [1])	self-cleavage kobs at 2500 uM GlcN6P (glucosamine-6-phosphate [2])	self-cleavage kobs at 10000 uM GlcN6P (glucosamine-6-phosphate [3])
C10U C11A G43A C68G C70U	< 1e-05 s⁻¹	–	–
G9U U54C C68U	< 1e-05 s⁻¹	–	–
C11A G38A G43U U54G	< 1e-05 s⁻¹	–	–
C11A G13C U57G	< 1e-05 s⁻¹	–	–
G9U C34G C58U	< 1e-05 s⁻¹	< 1e-05 s⁻¹	–
G9A U31G A52C	< 1e-05 s⁻¹	–	–
C10U C11G G29U U30G G37C	< 1e-05 s⁻¹	–	–
C8A C10A C34A	< 1e-05 s⁻¹	–	–
G7U C68G	0.000534 ± 0.00015 s⁻¹	–	–
C10G C11A C58A G66U	< 1e-05 s⁻¹	–	–
G7U G9U G43U	< 1e-05 s⁻¹	< 1e-05 s⁻¹	–
C10G C11U U45G A48U C58U	< 1e-05 s⁻¹	< 1e-05 s⁻¹	–
C10A G44A U47C	< 1e-05 s⁻¹	–	–
C8U G9U G13U G41U A42U C50G C68U	< 1e-05 s⁻¹	< 1e-05 s⁻¹	–
C8A C50G C61A U69G	7.27e-05 ± 2.2e-05 s⁻¹	6.55e-05 ± 2.7e-05 s⁻¹	–
C8G G60A C61G	< 1e-05 s⁻¹	< 1e-05 s⁻¹	–
C11A A12C A42C	< 1e-05 s⁻¹	< 1e-05 s⁻¹	–
C11A G35U C71G	< 1e-05 s⁻¹	< 1e-05 s⁻¹	–
C10U U30C G40U U55C G60A C71U	< 1e-05 s⁻¹	–	–
C11G C70A	3.62e-05 ± 1.5e-05 s⁻¹	–	–
G9C C67A C71U	< 1e-05 s⁻¹	< 1e-05 s⁻¹	–
G9A C11U U54A G59A A64G	< 1e-05 s⁻¹	< 1e-05 s⁻¹	–
C10U G44U U54G U55C	< 1e-05 s⁻¹	< 1e-05 s⁻¹	–

— the supplement of paper PMC7125110
